Test results published in the NTF2 design screens of Basanta et al. (2020).

Assay: protease stability score; higher = more stable; yeast display proteolysis, trypsin and chymotrypsin;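 also: relative to predicted unfolded state with 0 unfolded-like and 1 meaning tenfold more protease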

| Sequence | protease stability score |
| --- | --- |
| SEEHEDAEKWIRILLRDLKTGDEESLFQLLDPHTKLEVGDKHFHGREQVMRYVLHELKRVDHMEVELKHHHIQGEKAHLDIEVHNIFDGRVFVKHVHIDSKKINGRWRQEKIYIE | 1.33 |
| SEEHRLMEEIARIFIHLFLTGDEELFKHLADPNTRTHIHYGDKHIDLHGREQTTKFWKEHLDRVDHVEIRINDIRSIGDKAHIDGVLIMLVNGREHTIHIEIIVVVINGKDTEFEFRLI | 0.966 |
| SDAERHSQEVLRLWIKAAKTGDEDKFRNYIDPHVRVEINGKEIHGRDILLEEMRRRDVIRHVRVTDSRHYDGVVIMDVEVDGHVNGRDVETQTTSFIIKIDGKWVWQSFVQI | 0.98 |
| DEQEEHVEKLVHLLLRRFKTGDEEFWRRLADPRTRLHVGDKHHHGRETFMKVFRHLIEDLGIDHRIEKHFEVINGVLHIHQIIVVDGQEFELRIHVFVVDGKVKSIDVSIHTR | 0.896 |
| DDTDKLLKEYLEMEMEMIRTGNEHIFTRLADPNVRIEQGDKHFHGREEYKRLMEEHFEKIQHAKIEFRVHDIKRIGDKMYIRGEFIVHVGEYHESQDRIFINRKIDGRWYVEEIIIR | 1.25 |
| DEEKEEEDLVLEILIHMMRTGDEELLDELLDPNARQIVGDKEFIGRELSHWFATFFKNVKVEIKHFRVINGRIHMHVHIQIGDKRHDMRITARKVNGKWVLEESHIR | 1.62 |
| SESEEDAHKASREITHMLYTGNEELWSTLADPNTRIVINGVEVHGREQVVRVIRELLRRFGVDKVHSELRTVDVQGEKVEIHSHYVQGDKSYDIILVMNKIDGRWHLQRQSIR | 1.18 |
| SEDDKRLREIADLWKHAFLTGDFNLIHKLMDPHARWVVNGQHVHGMEEWEHFLERIDVFRIESSRTDHIEVYGDKVQIDGHSNVKIQIGDKKIDLITRMEIRLIIINGRYHQVEHIVR | 0.707 |
| TEEESQAREALLIVLELLRTGDWRSMEKYADPHTLQVFNGRHLHGRELFSDFLEEYERKLGVDRIRVHIHHLDVINGQLRVDTTIDYGDKHHRMIIIINKYDGRWELEQLRIT | 0.341 |
| SEEEKFAERFIRLFMEALETGDERVLEELLDPNVRVEVNGREYHGRDVFTRLVREWRIDHLDTHTHRIDSQGDKVNADTRVRFHHKVGDKVHDTEMHVILHSEKFNGRWHMTEIIIR | 1.34 |
| SNEQKEFELLLRLMKEIIETGDEENFHRMVDPHARLQVGDKHHHGREEMSRWFEEFTKRFKNAKVHIDHVDSVDGQLHIDTTLIFDGVERRVEIIVRKVDGKWILEEVRII | 1.08 |
| SEEEELALKLLRVLWHHLETGDEETLNHLLDPDTRWNVDGVNFHGMRDFVRHFRERLKHARLHSLHVHRFSMINGVMHFDGEVNEIYGDKTERYRVRIELVVVNGRWKELYLHKI | 1.55 |
| SELEQMWREAKETIEKINKTGDPRSLLENADPTVRTDYGEKDYHGREEFKKFLEWLGIKHIKDVRFRDFEVQGDKIIHDSEVDVEVGDKEFRIKSIVIALKVDGRWLITRLVFK | 1.9 |
| SEEHKVAQHAIEIEEHVWHTGDERMLHELFDPDARLIINGQEFHGREELHRFREEMRITHMRTKEVRVQGDKMEIHVRVDVDINGKRTDIRVIIISRKVDGRWINTEIEFR | 0.734 |
| DDVERIVKHMLELHIQSWLTGNEHLMHRLADPNVRSHIGDKERVGRHELSEMMIKHWEHLRIHRVEIRDSDVVGEKAESNTHVVVIFNGVEVRFDVRIEVVSINGRLHSSHIIIE | -0.029 |
| SHHEDDSEISIELTHNLIETGDFELLTELFDPNARMDYNGVTVHGRERVSEFLSRFAHHIRIKRRILRHMDLFDGQIHLHEEYHYDWDGQDIHTEVRFRSEKVNGRWVPKLLHRI | 0.969 |
| SEETEIIERAMKILLEILETGDEDRQRELMDPHYRLLIGDKVFHGREWAIKWAREIRVDRVELEDREIQGEKLLLHGHIHIRVGDKHHTMEVLIIVEKIDGRWRTHSRHVK | 0.651 |
| DEDLERARHAIEELIENWRTGNFREIERLMDPNVRIIIGDKTLHGRESMHRFVEEARLEHFELRHVSIVNGRVHVHGTEDWRIGDKRETREVRIVIHKVDGRWNFEFKIIH | 0.983 |
| SEEQTRLEEETRLLIELLTTGNEEEWARMFDPHARVDLHIGDKTIHSIGRENISELVRLLRHWLGVNHNHSTQLRVIDGVSVLHTESKVGDKHSKVTWIFVIVDGRLKTMEIRVRID | 1.33 |
| SEEDHELRIASEIMIKTTRTGDERLIKELFDPNTQIDFDGQELHGWKFVRRLDEEMRMHRSETKSYERYGDKIVIDIEVDVEFNGVRTRIRVTIIARKVNGRWLNEVMIIH | 1.14 |
| DEDDKDIEMVLRRLIEMVMTGDFEKAKRYADPDMQLDIGDKHFVGRETTITVLREWREHLGIDHVDIDHVHLHIIDGQVIVDLDITHRAENREIRVRFIHYVDKINGRWLVRRVDVKIH | 2.31 |
| DEEKEEADEHIRLLIDVMKTGDEDSMRRLIDPNVRIRVDGKEDHGMEKLVHLLRHARYREVRIEHVEHQGEKVIIHYKAWVEIDGQENHKKWHFIVTKVDGKWTLKEVSVH | 2.3 |
| DEWHELANEIMQLLIELWLTGDEEIVLKLADPNVKVKIIVNGRTYSNHGREMFHDWHRRVDYIHEIRIKDVTFVNGVVISDTHVDGTINGVRMRTDTKMIVVVVNGKLKSAEYRVE | 1.11 |
| DEMHEYTERLLHLLTFAQITGDERIHERLADPNVKIHINGREFHGREEVWHSLEEIRVRHTELRESDIQGDKINVNGDVDLHFNGVDIVTKVRIVVDKVNGRWRISFLRID | 0.546 |
| SEEEELARHSIEVMIRLYETGDWDSSVDMADPHTRVHINGRDLIGREFYSEWSKEHLKRYKNATIILEDHEVQGNKVKVRIRIIVGDKESEIIFYILKINGRWIWHTVEVR | 2.19 |

| Sequence | protease stability score |
| --- | --- |
| TEDVRHADEMIERVIESLTTGDEESYKRLLDPDVRVLIGDKRIHGMEAVLEWFRRIDHVQIHDVRVREVEIVNGRADVRMEFDLTHRINGVEHRFKFESEMLLVKIDGQWRLHSDKRI | 1.57 |
| DREEEEVRRARKLWVDWAETGDEESIFKNADPRTRVDINGKILHGMEIYKKESEKLGIDNIEFRVDDVRVFDGRLEMDGELIVNGRSIRVHIYSRKIDGRWVLTSINFI | 0.872 |
| DEEEERFEEVWRRLARALETGDEETVRHLIDPNVLIIIGDKTIHGWESLSTYLKEIRLTISDMRVRSRSEVNGKLEFDTHTHRVVFINGVELHVEERIHITMLKIDGRWHIHSIEFR | 1.45 |
| DDTDRRSRILTELSLNLFRTGDWKLFEEMADPHARMSMDVDGKELRHHGRESVSHVWHRQLFELGVDHYDLHDVKVIDGVMHVFSEVKVGDKRLELLIVAEKVNGKWHIREVHIKII | 0.202 |
| SEETEFAKEMLDIIFNLLRTGDWEYLVRLMDPHVRVIYGDKVTHGRDIIQYMHEHIRIRHLEFRHFDVIGDKINVDGRMEGEVNGRHDKTEMHIILLKINGRWSLHSIEIR | 1.39 |
| SEEKKQSDEAWELYIKSVETGDFRMLHELLDPNVKIHIGDKDIHGREYIMEHMLKFGVTTQSRFEVKDIKLQGDFVIIHGHIRSIFHFNGRTLRVEHDVEIFATKFDGRWWTHSVEVN | 1.18 |
| HELEHELEKFMQWIIEFLETGDEDALSTLLDPNVRYVINGQNLHGRSLLITTLHRLKEEIRVHWKIRDLKIQGDKAHSDGRFTIIVNGRKHSVDSHINVTIVDGRIHRVEIELR | 1.7 |
| TELEESAKRAVKHVVDLILTGDWELFEEMFDPHTRILVGDKHMHGREMASEHLRFWYEHLGVKHIEIRRIDVQGDKVVSDVETDIDGRHIRVNLVIHKVDGKWIIHSIHLD | 1.59 |
| TEDERMVSEHLKQWLHSLRTGDEDTIQRLFDPHTRIIFEGHEFIGMEDMEEWLTKFHEEARSHKLIIKRIHIIGDKVHVEGVLDGEYNGRRHELKVIIIALKINGRWVMHQIEIR | 1.97 |
| TELDEQVTEVFKINERLKQTGDWKKIIDYVDPHARVEIGEFRDHGRDAAEFTMKYLGIDHFELKRVHLQGNKLHIHGELTVDGRLIHLIIISEKVDGRWITKSMTVD | 0.01 |
| DHEEEEEHFLLEHMIEAIVTGDEDRLKELVDPHVRMDIDGVIIHGMDDIARWLKELRSIIRHFIPRDRKWQGNKIHIEGEVHGELRFDGRNQTDTFRIEIVSHKINGRWVIRSESFR | 1.18 |
| SEEEKYARKAIELMKHNYETGDFEKLSRLMDPHVRLHIGDKSHHGMDEFVHWVSQFDHMEMNVHDVRVQGDKIEIIGHLVVRIDGRERRTETYIHLHKFDGQWIVHTIEVR | 1.34 |
| DDREEKIKRAWETFVHNVRTGDEDSNEELADPNVKVLFNGREFHGMEQLSKFFKHLRVHDFVLKDIRVVGDKVHVEGLVDGEINGKRELTTMHMVFIKFNGRWIIQSVEFK | 1.53 |
| SEREEEMKHLHKNLVHNLFTGDEDSHKKLADPNARSVFDGRDFIGMDWWSRYYRHVFERFKGLRLENHHIHFQGNYLHIEARSYIGDKEEIWHFDYFMFDGKVHEVRMEVTKR | 0.813 |
| SELDHAAEHLYRLFYHLERTGDEETLMDNMDPNARNEQGEFEYHGREFIEWVSEHLGINVIRVKRVDLRVINGRMILDIDYRVHIGDKTIQRHIHVVINKVNGKWIVEKLRIEWR | 0.79 |
| REDEEQMSRFIKEMIHLLRTGDEDRLHELIDPHTRLDFDGKEIHGREEWSQFLKEIRFRRFEVKDFEIVNGVANVDGKMHGEFDGQRFTTRVHIYNVKINGRWVHKWEEIG | 1.32 |
| DEEEDDVRRLIERFQHNFDTGNWHMLEHLVDPHARINFDGVESHGMELIVHVNEHMRIHDTHIRDIRIDVVGDKVFVENIVRVESEINGQHRDVEMRISMVITKVNGRWLIKEIRIKIH | 0.974 |
| SEEQEHTREAMEVYLHLMHTGDWDRFRELVDPNVRMNINGVDLHGWEELTRFMEIFWRDLGFDHFKIHEMRIYGEKSHIRGESIIGDKSREVHIHVVIVNGRIKSEKFVET | 0.83 |
| TEEERDSKLAFQLLFKTLETGDEREHREFIDPNMRLHVGNYEFIGWERAVHIMRRIDHVQRIEIEDTYTIGNKVTIDGTDYIEVGDFTERIRSRWIILKVDGKWFIHHVELR | 0.679 |
| SEEEEEAHRYQEEWKRVHRTGDEDRFRELMDPNVRIHLNINGKNIHLHGRQLAVDFLRHIHLHWRDHEIHTHDIRHFNGVTHVTGRLDGEVNGRRIDTHVEFHHHVFNGRIKSIIIIVH | 1.33 |
| SEEEEFVEVAIKIVQEIRKTGDEDEQERLADPHVRFDINGQDIHGREKWTKWVHEIRVRMKHVRERHITVINGKAHIHGEVDVHFHVNGVELRIDTKYTVVIEKVNGRWRLREVHLV | 2.22 |
| SEDERDISEVLEEISRIWKTGDEKRFRDLADPNVKMVVNGRELHGRDFAIEAWRKFRELYGIKHIRTVQVNSIDIQGDKVHVDTSMDGQQGEKRTVLRSEIIMLKVDGRWHLESMSFG | 1.72 |
| DERHHRVKHWVHRFVHAWITGDERELRELLDPNVRLNFEFDGRREENVGRRDVDRFIHEILEKYKNVTIIFRDFEIVGDKFHLHTELIIGDKKHRIHIEINVINGQHEWIKIHIE | 1.66 |
| DEEHTDITRATEHLIDSMETGDEDRLQELFDPNTLMRINGRRHHGREDMREFIRELVEKVKNLKIEIDHIDVVGNKVRLEVTLRVNGQEISTHIIIVKVDGRWIVKRMHIN | 0.667 |
| DDEEKEVKILTEIWWKSVRTGDEEFWDRLADPHTRLEILINGRTHEFHGMDEYNRILHHLRIEDRRTRSINNIDGKAQIDGFLVFRINGRSFETKVEVNISVVNGKVKHHKIIIE | 1.3 |
